Assay [1] has as its target human mu opioid receptor (human) (UniProt P35372). Description: radioligand competition, 3H-DAMGO, membranes of CHO cells expressing cloned human mu receptor. On the technique in general: Loss of bound radioactivity is the signal in a displacement assay; it reports binding, not function.
The target of assay [2] is T1, human delta opioid receptor (human, UniProt P41143 1-372). Description: ratio of Ki at delta to Ki at mu, radioligand competition.
Assay [3] concerns the target T1, human delta opioid receptor. Description: cell-based or functional assay.
The target in assay [4] is human kappa opioid receptor (human) (UniProt P41145). Description: ratio of Ki at kappa to Ki at mu, radioligand competition.
Assay [5] has the same target. Description: radioligand competition, 3H-U69593, membranes of CHO cells expressing cloned human kappa receptor.
Assay [6] has the same target. Description: cell-based or functional assay.
The target of assay [7] is human mu opioid receptor (human) (UniProt P35372). Description: cell-based or functional assay.
The target in assay [8] is T1, human delta opioid receptor. Description: radioligand competition, 3H-DPDPE, membranes of CHO cells expressing cloned human delta receptor.

Positions of bridges follow the written chain, without caps; N, C: chain ends. Non-standard residues stand in square brackets, D forms with d. No end group written: not given here.

A word on the Ki: it is a dissociation constant, usually derived from enzyme kinetics or from competition with a known ligand. Read a high Ki as lower affinity. As to ck2, Tyr-c[D-Lys-Phe-Phe] (peptide), the Ki in assay [1] came to 0.00036 µM; in assay [5], 0.012 µM; in assay [8], 0.003 µM. Also, the Selectivity Delta/Mu in assay [2] turned out to be 9. The Agonist EC50 (35S-GTPγS assay) in assay [3] came out at 0.007 µM; in assay [6], 0.206 µM; in assay [7] it was 0.00015 µM. In assay [3], this molecule had a Selectivity delta/mu (agonist EC50) of 44. Also, the Selectivity Kappa/Mu in assay [4] worked out at 33. The molecule also displayed a Selectivity kappa/mu (agonist EC50) in assay [6] of 1370. The same molecule had an efficacy of mu activation (35S-GTPγS) in assay [7] of more than 90%.

For the molecule ck1, Tyr-c[D-Lys-Trp-Phe] (peptide), the inhibitory constant (Ki) in assay [1] was 0.00032 µM; in assay [5], 0.035 µM; in assay [8] it was 0.028 µM. For the same molecule, the Selectivity Delta/Mu in assay [2] turned out to be 90. Besides, the Agonist EC50 (35S-GTPγS assay) was 0.138 µM in assay [3], 0.47 µM in assay [6] and 0.00021 µM in assay [7]. Also, the Selectivity delta/mu (agonist EC50) in assay [3] came to 658. Further, the Selectivity Kappa/Mu in assay [4] turned out to be 111. The molecule also showed a Selectivity kappa/mu (agonist EC50) in assay [6] of 2240. The molecule further showed an efficacy of mu activation (35S-GTPγS) in assay [7] of more than 90%.

B1: Compound 1, Tyr-c[D-Lys-Trp-Phe-Glu]-NH2 (peptide)
peptide: Y[dK]WFE-NH2
modifications: lactam 2-5; N-terminus assumed
SMILES: NC(=O)[C@@H]1CCC(=O)NCCCC[C@@H](NC(=O)[C@@H](N)Cc2ccc(O)cc2)C(=O)N[C@@H](Cc2c[nH]c3ccccc23)C(=O)N[C@@H](Cc2ccccc2)C(=O)N1
As for B1, in assay [3], the “Delta Antagonist IC 50” value worked out at 0.105 µM.

B2: Compound 5, Tyr-c[D-Lys-Trp-Phe-Asp]-NH2 (peptide)
peptide: Y[dK]WFD-NH2
modifications: lactam 2-5; N-terminus assumed
SMILES: NC(=O)[C@@H]1CC(=O)NCCCC[C@@H](NC(=O)[C@@H](N)Cc2ccc(O)cc2)C(=O)N[C@@H](Cc2c[nH]c3ccccc23)C(=O)N[C@@H](Cc2ccccc2)C(=O)N1
With B2, the “Delta Antagonist IC 50” value in assay [3] was 0.557 µM.

B3: Compound 2, Tyr-c[D-Glu-Phe-Phe-Lys]-NH2 (peptide)
peptide: Y[dE]FFK-NH2
modifications: lactam 2-5; N-terminus assumed
SMILES: NC(=O)[C@@H]1CCCCNC(=O)CC[C@@H](NC(=O)[C@@H](N)Cc2ccc(O)cc2)C(=O)N[C@@H](Cc2ccccc2)C(=O)N[C@@H](Cc2ccccc2)C(=O)N1
For the molecule B3, the “Delta Antagonist IC 50” value in assay [3] was found to be 2.75 µM.

Take YPFF-NH2 [endomorphin-2 (Tyr-Pro-Phe-Phe-NH2)]: the “Delta Antagonist IC 50” value in assay [3] was found to be 30 µM.

The values are drawn from patent US20170362276A1 (published 2017).
